Laboratory results published in patent US20240366775A1, “HUMAN TRANSFERRIN RECEPTOR BINDING ANTIBODY-PEPTIDE CONJUGATE” (PEPTIDREAM INC., priority 2021, published 2024).

Target: human transferrin receptor (hTfR) (human), P02786
Assay: SPR of naked peptide on hTfR; B = KD between 1 nM and 100 nM

Chain of human transferrin receptor (hTfR) (human), P02786 (P02786 89-760 limits assumed): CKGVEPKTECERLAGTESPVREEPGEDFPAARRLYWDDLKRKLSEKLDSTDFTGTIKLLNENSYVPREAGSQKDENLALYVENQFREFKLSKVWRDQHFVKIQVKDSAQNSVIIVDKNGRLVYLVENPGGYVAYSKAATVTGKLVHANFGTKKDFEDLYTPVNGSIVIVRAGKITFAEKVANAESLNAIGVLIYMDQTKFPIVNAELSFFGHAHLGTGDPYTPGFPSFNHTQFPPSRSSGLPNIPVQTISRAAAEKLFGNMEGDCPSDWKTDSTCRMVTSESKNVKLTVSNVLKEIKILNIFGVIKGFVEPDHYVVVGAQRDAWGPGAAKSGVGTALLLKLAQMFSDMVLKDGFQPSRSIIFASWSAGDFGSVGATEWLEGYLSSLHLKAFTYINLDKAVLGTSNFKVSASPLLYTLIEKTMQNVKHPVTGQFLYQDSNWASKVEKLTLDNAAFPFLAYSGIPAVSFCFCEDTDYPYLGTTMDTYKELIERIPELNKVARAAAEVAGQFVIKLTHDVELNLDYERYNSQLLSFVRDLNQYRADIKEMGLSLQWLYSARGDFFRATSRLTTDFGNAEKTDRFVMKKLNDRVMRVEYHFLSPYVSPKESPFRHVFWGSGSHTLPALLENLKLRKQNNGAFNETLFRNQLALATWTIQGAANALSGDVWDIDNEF

KD: 1 to 100 nM
Binder: AVFVWNYYIISC (modifications not checked) [naked peptide (1st to 12th amino acids) of SEQ ID NO: 14, peptide 36]
